Consider 34 variants from the RNAGym collection of RNA variant scans (doi:10.1093/nar/gkz1192).

The chains are these.
B1: CPEB3 Ribozyme (parent)
chain: UAACAGGGGGCCACAGCAGAAGCGUUCACGUCGCAGCCCCUGUCAGAUUCUGGUGAAUCUGCGAAUUCUGCUGUAUAUCUC

This data set covers variants of B1. Briefly: self-cleavage, relative activity (ratio to wild type); higher = more cleavage; in vitro, sequencing. The essentials:
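Relative activity compares each variant's cleaved/total read fraction with that of the unmutated ribozyme. To get these fractions, barcoded CPEB3 ribozyme libraries from rounds of error-prone PCR were transcribed with T7 RNA polymerase for 5 hours at 37°C and then given 15 min of DNase I treatment before EDTA was added. The RNAs were reverse transcribed with template switching and sequenced on Illumina, and DNA sequencing linked barcodes to variants. A minimum of 5 reads applied, and three batches were averaged.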
For UAACAGGGGGCCACAGCAAAAGCGUUCACGUCGCAGCCCCUGUCAGAUUCUGGUGAAUCUGCGGAUUCUGCUGUAUAUCUC, the self-cleavage is 0.21.

For UAACAGGGGGCCACAGCAAAAGCGUUCACGUCGCAGCCACUGUCAGAUUCUGGUGAAUCUGCGAAUUCUGCUGUAUAUCUC, the self-cleavage was found to be 0.11.

UAACAGGGGGCCACAGCAAAAGCGUUCACGUCGCAGCCUCUGUCAGAUUCUGGUGAAUCUGCGAAUUCUGCUGUAUAUCUC: the self-cleavage amounted to 0.33.

Regarding UAACAGGGGGCCACAGCAAAAGCGUUCACGUCGCAGCCCCUGUCAGAUUCCGGUGAAUCUGCGAAUUCUGCUGUAUAUCUC, the self-cleavage was 0.32.

Regarding UAACAGGGGGCCACAGCAAAAGCGUUCACGUCGCAGCCCCUGUCAGAUUCAGGUGAAUCUGCGAAUUCUGCUGUAUAUCUC, the self-cleavage turned out to be 0.31.

As for UAACAGGGGGCCACAGCAAAAGCGUUCACGACGCAGCCCCUGUCAGAUUCUGGUGAAUCUGCGAAUUCUGCUGUAUAUCUC, the self-cleavage stood at 0.44.

With UAACAGGGGGCCACAGCAAAAGCGUUCACGUCGCAGCCCCUGUCAGAUUCUGGUGAAUCUGCGAAUACUGCUGUAUAUCUC, the self-cleavage was 0.07.

Take UAACAGGGGGCCACAGCAAAAGCGUUCACGUCGCAGCCCCUGUCAGAUUCUGGUGAAUCUGCGAAUCCUGCUGUAUAUCUC: the self-cleavage came out at 0.17.

Take UAACAGGGGGCCACAGCACAAGCGUUCACGUCGCAGCCCCUGUCAGAUUCUGGUGAAUCUGCGAAUUCUGCUGUAUAUCUC: the self-cleavage worked out at 0.29.

On to UAACAGGGGGCCACAGCACAAGCGUUCACGUCGCCGCCCCUGUCAGAUUCUGGUGAAUCUGCGAAUUCUGCUGUAUAUCUC, for which the self-cleavage is 0.2.

Turning to UAACAGGGGGCCACAGCACAAGCGUUCACGUCGCUGCCCCUGUCAGAUUCUGGUGAAUCUGCGAAUUCUGCUGUAUAUCUC, the self-cleavage stood at 0.22.

For the variant UAACAGGGGGCCACAGCACAAGCGUUCACGUCGCAGCCCCUGUCAGAUUCUGGUGAAUCUGCGAAUUCUGCUGUAUGUCUC, the self-cleavage amounted to 0.24.

Regarding UAACAGGGGGCCACAGCAAAAGCGUUCACGUCGCAGCCCCUGUCAGAUUCUGGUGAAUCUGCGAAUUCUGCUGUAUGUCUC, the self-cleavage worked out at 0.3.

Consider UAACAGGGGGCCACAGCAAAAGCGUUCACGUCGCAGCCCCUGUCAGAUUCUGGUGAAUCUGCGAAUUCUGCUGUGUAUCUC, for which the self-cleavage came out at 0.09.

UAACAGGGGGCCACAGCAAAAGCGUUCACGUCGCAGCCCCUGUCAGAUUCUGGUGAAUCUGCGAACUCUGCUGUAUAUCUC: the self-cleavage was determined as 0.44.

In the case of UAACAGGGGGCCACAGCAAAAGCGUUCACGUCGCAGCCCCUGUCAGAUUCUGGUGAAUCUGCGAAAUCUGCUGUAUAUCUC, the self-cleavage was determined as 0.13.

As to UAACAGGGGGCCACAGCAAAAGCGUUCACGUCGCAGCCCCUGUCAGAUUCUGGUGAAUCUGCGAAGUCUGCUGUAUAUCUC, the self-cleavage is 0.51.

Take UAACAGGGGGCCACAGCACAAGCGUUCACGUCGCAGCCCCUGUCAGAUACUGGUGAAUCUGCGAAUUCUGCUGUAUAUCUC: the self-cleavage came to 0.36.

UAACAGGGGGCCACAGCACAAGCGUUCACGUCGCAGCCCCUGUCAGAUUCUGGUGAUUCUGCGAAUUCUGCUGUAUAUCUC: the self-cleavage turned out to be 0.13.

As for UAACAGGGGGCCACAGCACAAGCGUUCACGUCGCAGCCCCUGUCAGAUUCUGGUGAGUCUGCGAAUUCUGCUGUAUAUCUC, the self-cleavage was found to be 0.23.

For the variant UAACAGGGGGCCACAGCAAAAGCGUUCACGUCGCAGCCCCUGUCAGAUUCUGGUGAAUCUGUGAAUUCUGCUGUAUAUCUC, the self-cleavage came to 0.36.

UAACAGGGGGCCACAGCAAAAGCGUUCACGUCGCAGCCCCUGUCAGAUCCUGGUGAAUCUGCGAAUUCUGCUGUAUAUCUC: the self-cleavage amounted to 0.1.

As for UAACAGGGGGCCACAGCACAAGCGUUCACGUCGCAGUCCCUGUCAGAUUCUGGUGAAUCUGCGAAUUCUGCUGUAUAUCUC, the self-cleavage amounted to 0.16.

As to UAACAGGGGGCCACAGCAAAAGCGUUCACGUCGCAGCCCCCGUCAGAUUCUGGUGAAUCUGCGAAUUCUGCUGUAUAUCUC, the self-cleavage is 0.22.

For UAACAGGGGGCCACAGCAAAAGCGCUCACGUCGCAGCCCCUGUCAGAUUCUGGUGAAUCUGCGAAUUCUGCUGUAUAUCUC, the self-cleavage was 0.13.

For UAACAGGGGGCCACAGCAAAAGCGAUCACGUCGCAGCCCCUGUCAGAUUCUGGUGAAUCUGCGAAUUCUGCUGUAUAUCUC, the self-cleavage is 0.28.

For the variant UAACAGGGGGCCACAGCACAAGCGUUCACGUCGCAGCCCCUGUCAGAAUCUGGUGAAUCUGCGAAUUCUGCUGUAUAUCUC, the self-cleavage stood at 0.18.

For UAACAGGGGGCCACAGCACAAGCGUUCACGUCGCAGCCCCUGUCAGACUCUGGUGAAUCUGCGAAUUCUGCUGUAUAUCUC, the self-cleavage is 0.35.

Turning to UAACAGGGGGCCACAGCACAAGCGUUCACGUCGCAGCCCCUGUCAGAUUCUGGUGUAUCUGCGAAUUCUGCUGUAUAUCUC, the self-cleavage stood at 0.19.

Regarding UAACAGGGGGCCACAGCACAAGCGUUCACGUCGCAGCCCCUGUCAGAUUCUGGUGGAUCUGCGAAUUCUGCUGUAUAUCUC, the self-cleavage came to 0.07.

UAACAGGGGGCCACAGCAAAAGCGUUCACGUCGCAGCCCCUGUCAGAUUCUGGUGAAUCGGCGAAUUCUGCUGUAUAUCUC: the self-cleavage is 0.4.

Turning to UAACAGGGGGCCACAGCAAAAGCGUUCACGUCGCAGCCCCUAUCAGAUUCUGGUGAAUCUGCGAAUUCUGCUGUAUAUCUC, the self-cleavage was 0.15.

Take UAACAGGGGGCCACAGCAAAAGCGUUCACGUCGCAGCCCCUGUCAGAUUCUGGCGAAUCUGCGAAUUCUGCUGUAUAUCUC: the self-cleavage worked out at 0.23.

As for UAACAGGGGGCCACAGCACAAGCGUUCACGUCGCAGCCCUUGUCAGAUUCUGGUGAAUCUGCGAAUUCUGCUGUAUAUCUC, the self-cleavage is 0.29.
